Drawing on article PMC10364585, this text covers rate constant for primary nucleation kn for one substance.

This test has as its target recombinant spider silk protein eADF4(C16). Briefly: seeded turbidity kinetics at 340 nm; monomeric eADF4(C16) 10-40 uM with 0.5% or 30% (w/w) preformed seeds (sonicated mature fibrils of the same protein), 150 mM KPi pH 8.0, quiescent, 20-40 C; global fit with AmyloFit (secondary nucleation model).

“recombinant spider silk protein eADF4(C16)”: the rate constant for primary nucleation kn was found to be 1e-09 M⁻¹ s⁻¹.
